Source: article doi:10.1101/2023.01.12.523719 (2023)

Target: T1, Myc-tagged NLRP6 (ΔPYD)
T1 chain: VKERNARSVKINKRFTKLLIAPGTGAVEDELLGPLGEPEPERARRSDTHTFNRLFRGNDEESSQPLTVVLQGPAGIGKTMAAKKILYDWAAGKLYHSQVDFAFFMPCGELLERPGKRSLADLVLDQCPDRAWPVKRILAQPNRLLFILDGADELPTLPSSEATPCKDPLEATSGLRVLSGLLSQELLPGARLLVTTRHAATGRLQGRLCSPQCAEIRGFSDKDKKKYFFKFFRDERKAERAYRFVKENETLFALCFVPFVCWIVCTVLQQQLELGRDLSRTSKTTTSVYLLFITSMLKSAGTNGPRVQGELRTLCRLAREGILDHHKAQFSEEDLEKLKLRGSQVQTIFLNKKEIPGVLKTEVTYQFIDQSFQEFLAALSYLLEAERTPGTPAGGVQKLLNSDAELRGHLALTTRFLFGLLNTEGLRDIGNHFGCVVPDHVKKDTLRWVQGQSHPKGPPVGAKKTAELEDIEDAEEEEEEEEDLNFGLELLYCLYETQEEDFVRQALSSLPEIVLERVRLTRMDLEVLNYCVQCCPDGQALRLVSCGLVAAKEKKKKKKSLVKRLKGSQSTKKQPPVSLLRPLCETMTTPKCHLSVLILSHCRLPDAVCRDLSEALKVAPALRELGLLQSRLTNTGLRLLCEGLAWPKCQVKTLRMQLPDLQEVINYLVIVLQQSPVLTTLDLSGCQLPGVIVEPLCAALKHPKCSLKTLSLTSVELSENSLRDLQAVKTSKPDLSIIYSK

Kd: 88 nM
B1: FLAG-tagged iTie (natural protein)
chain: MGVFQILMKNKELIPLAFFISVAATGATSFALYALKKTDVVIDRKRNPEPWEMVDPTQPQKLITINQQWKPVEELQKVRRATR
